# Reference: patent US20040138134A1
# Molecular target: natriuretic peptide receptor on C3H10T1/2 cells
# Experiment: cell-based or functional assay
row,Binder,"% relative binding (cGMP, Biotrak EIA, peptide at 10^-6 M)"
1,CFGLKLDHIGSMSGLGC [CNP variant SEQ ID NO:48],13.5%
2,CFGIKLDRIGSMSGLGC [CNP variant SEQ ID NO:41],47.4%
3,CFGVKLDRIGSMSGLGC [CNP variant SEQ ID NO:42],64.2%
4,CFGLKADRIGSMSGLGC [CNP variant SEQ ID NO:45],11.3%
5,CFGLKLIRIGSMSGLGC [CNP variant SEQ ID NO:38],7.23%
6,CIGLKLDRIGSMSGLGC [CNP variant SEQ ID NO:28],13.9%
7,CWGLKLDRIGSMSGLGC [CNP variant SEQ ID NO:31],-10.8%
8,CAGLKLARIGSMSGLGC [CNP variant SEQ ID NO:24],-5.85%
9,CFGLKLNRIGSMSGLGC [CNP variant SEQ ID NO:37],17.2%
10,CFGLKLDKIGSMSGLGC [CNP variant SEQ ID NO:49],21.5%
11,CMGLKLDRIGSMSGLGC [CNP variant SEQ ID NO:30],-1.34%
12,CAGLKLARIGSASGLGC [CNP variant SEQ ID NO:27],-10.4%
13,CFGLKIDRIGSMSGLGC [CNP variant SEQ ID NO:46],88.1%
14,CHGLKLDRIGSMSGLGC [CNP variant SEQ ID NO:33],5.7%
15,CFGLKLMRIGSMSGLGC [CNP variant SEQ ID NO:39],7.78%
16,CFGLKVDRIGSMSGLGC [CNP variant SEQ ID NO:47],66.7%
17,CFGAKLDRIGSMSGLGC [CNP variant SEQ ID NO:40],20.2%
18,CLGLKLDRIGSMSGLGC [CNP variant SEQ ID NO:29],6.25%
19,CFGLKLQRIGSMSGLGC [CNP variant SEQ ID NO:36],-17.1%
20,CFGLKLARIGSASGLGC [CNP variant SEQ ID NO:26],5.75%
21,CTGLKLDRIGSMSGLGC [CNP variant SEQ ID NO:34],-6.9%
22,CFGLLLDRIGSMSGLGC [CNP variant SEQ ID NO:43],29.7%
23,CVGLKLDRIGSMSGLGC [CNP variant SEQ ID NO:32],5.74%
24,CFGLMLDRIGSMSGLGC [CNP variant SEQ ID NO:44],5.42%
25,CFGLKLERIGSMSGLGC [CNP variant SEQ ID NO:35],9.45%
